{"source": "patent EP1506971A1", "about": "(The Regents of the University of California, dated 2005)", "binders": {"B1": {"name": "chimeric prokineticin 21 (exons 1 and 2 of prokineticin 2, exon 3 of prokineticin 1) (ligand)", "chain": "AVITGACDKDSQCGGGMCCAVSIWVKSIRICTPMGKLGDSCHPLTRKVPFFRKRKHHTCPCLPNLLCSRFPDGRYRCSMDLKNINF"}}, "target": "prokineticin receptor(s) of guinea pig ileal membrane / ileal smooth muscle (guinea pig)", "assay": "cell-based or functional assay"}
{"binder": "B1", "values": [{"measurement": "EC50 of ileal smooth muscle contraction, relative to prokineticin 1 or prokineticin 2", "value": "~8", "unit": "fold"}]}
